Molecular target: PEDF receptor (unidentified cell surface receptor on bovine retinal capillary endothelial cells)
Assay: cell-based or functional assay

VLLSPLSVATALSALSLGAEQRTESIIHRALYYDLISSPDIHGT [PEDF 44 AA peptide (residues 78-121 of human PEDF)]
inhibition of VEGF stimulated endothelial cell migration (BRCEC microchemotaxis chamber), IC50: 3 nM

— patent US20080293626A1 (Johns Hopkins, published 2008)
